# Laboratory results as given in patent publication US20260242478A1 (published 2026).
# Where no end group is shown, it is not given here.
# B1: Phage-3219 (peptide)
# peptide: DQVMCKPIWMCEGF
# notes: not shown: pIII filament protein of the bacteriophage
# B2: Phage-3220 (peptide)
# peptide: IPRACIPAWMCQGF
# notes: as for B1
# B3: Phage-3215 (peptide)
# peptide: LDLRCQPPWMCMGF
# notes: as for B1
# B4: Phage-3218 (peptide)
# peptide: DVHLCKPSWMCAGF
# modifications: cysteine pairing not given here; also: fused to phage pIII, sequence not given here
# notes: as for B1
# B5: Phage-3221 (peptide)
# peptide: LQILCKPQWMCEGL
# notes: as for B1
# B6: Phage-3216 (peptide)
# peptide: VEPLCVPSWMCQGI
# notes: as for B1
# B7: Phage-3217 (peptide)
# peptide: IELFCKPAWMCDGF
# notes: as for B1
# B8: Phage-3214 (peptide)
# peptide: MAPYCVPSWMCWGF
# notes: as for B1
# B9: Phage-3213 (peptide)
# peptide: AIAMCVPSWMCTGL
# modifications: cysteine pairing not given here; also: fused to phage pIII, sequence not given here
# notes: as for B1
# B10: Phage-3112 (peptide)
# peptide: EPQMCIPRWMCDGF
# notes: Clonal phage of the peptide-180 library; not shown: pIII filament protein of the bacteriophage, fused to the peptide
# B11: Phage-3110 (peptide)
# peptide: VVQLCRPSWMCQGF
# notes: as for B10
# B12: Phage-3114 (peptide)
# peptide: VPRYCVPQWMCAAF
# notes: as for B10
# B13: Phage-3103 (peptide)
# peptide: GEILCRPAWMCYGF
# notes: as for B10
# B14: Phage-3102 (peptide)
# peptide: DFAYCKPEWMCVGF
# notes: as for B10
# B15: Phage-3113 (peptide)
# peptide: NGVVCQPPWMCFGF
# notes: as for B10
# B16: Phage-3111 (peptide)
# peptide: IEIMCMPRWMCDGF
# notes: as for B10
# B17: Phage-3104 (peptide)
# peptide: GEVLCRPAWMCSGF
# notes: as for B10
# B18: Phage-3108 (peptide)
# peptide: SEVVCVPTWMCTGF
# notes: as for B10
# B19: Phage-3106 (peptide)
# peptide: NPMYCKPSWMCEGF
# notes: as for B10
# B20: Phage-3109 (peptide)
# peptide: VEAMCKPWWMCEGL
# notes: as for B10
# B21: Phage-3107 (peptide)
# peptide: PVAVCKPEWMCIGF
# notes: as for B10
# B22: Phage-3105 (peptide)
# peptide: QEIRCEPIWMCWGF
# notes: as for B10
# B23: Phage-1800 (peptide, not shown: large carriers)
# peptide: ESRLCVPAWMCAGF
# notes: Clonal phage supernatant; also called Peptide-270
# B24: Phage-1802 (peptide, not shown: large carriers)
# peptide: LHVYCVPEWMCAGF
# notes: Clonal phage supernatant; also called Peptide-272
# B25: Phage-1790 (peptide, not shown: large carriers)
# peptide: EPKWCVPRGLCNYD
# notes: Clonal phage supernatant; also called Peptide-240
# Biological target: T1, PSMA Fab (biotinylated (site not stated))
# T1 construct: Biotinylated PSMA Fab captured on neutravidin coated plates in the phage ELISA; also called Anti-PSMA Fab; 006 PSMA Fab
# Experiment: clonal phage ELISA on plate-bound PSMA Fab pre-incubated with PSMA antigen as competitor
# Description: (§1) Clonal phage were harvested as crude supernatants and screened via standard ELISAs. […] Prior to the addition of clonal phage. wells were incubated with blocking buffer and PSMA antigen or blocking buffer alone. Without washing or aspirating, clonal phage supernatants were then added to the wells and incubated for a short time. Wells were then washed followed by detection of bound phage using a horse radish conjugated anti-M13 antibody.
row,Binder,phage binding ELISA signal
1,B1,0.0928
2,B2,0.101
3,B3,0.0778
4,B4,0.0706
5,B5,0.0882
6,B6,0.076
7,B7,0.111
8,B8,0.145
9,B9,0.0711

# Biological target: T1, PSMA Fab
# Experiment: clonal phage ELISA on biotinylated PSMA Fab captured on neutravidin; anti-M13 HRP detection
# Description: as §1
row,Binder,phage binding ELISA signal
1,B1,1.96
2,B2,1.96
3,B3,1.97
4,B4,1.96
5,B5,1.96
6,B6,1.97
7,B7,1.97
8,B8,1.97
9,B9,1.97

# Biological target: T2, PSMA Fab (biotinylated (site not stated))
# T2 construct: Biotinylated PSMA Fab captured on neutravidin coated plates for the clonal phage ELISA; also called Anti-PSMA Fab; 006 PSMA Fab
# Experiment: clonal phage supernatant ELISA on biotinylated PSMA Fab captured on neutravidin; anti-M13-HRP detection
row,Binder,"Phage binding ELISA signal, Anti-PSMA Fab"
1,B10,2.08
2,B11,2.08
3,B12,2.08
4,B13,2.09
5,B14,2.09
6,B15,2.08
7,B16,2.08
8,B17,2.09
9,B18,2.08
10,B19,2.08
11,B20,2.08
12,B21,2.08
13,B22,2.09

# Biological target: T3, Anti-CD28 Fab (SEQ ID NOs: 696, 697)
# T3 construct: Biotinylated and captured on neutravidin coated plates in the phage ELISA
# Experiment: phage ELISA; biotinylated anti-CD28 Fab on neutravidin plate, clonal phage supernatant, anti-M13 HRP detection;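 further: before phage addition, wells were pretreated with either CD28 antigen in blocking buffer or only blocking buffer, and phage was added without an intervening wash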
# Description: (§2) Clonal phage were harvested as crude supematants and screened via standard ELISAs. […] Prior to the addition of clonal phage, wells were incubated with blocking buffer and CD28 antigen or blocking buffer alone. Without washing or aspirating, clonal phage supematants were then added to the wells and incubated for a short time. Wells were then washed followed by detection of bound phage using a horse radish conjugated anti-M13 antibody.
# T3 sequence (VH, as listed by the source, chain 1 of 2): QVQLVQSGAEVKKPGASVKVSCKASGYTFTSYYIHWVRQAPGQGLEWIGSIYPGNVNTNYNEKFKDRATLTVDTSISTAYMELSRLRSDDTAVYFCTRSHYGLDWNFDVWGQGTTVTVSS
# T3 sequence (VL, as listed by the source, chain 2 of 2): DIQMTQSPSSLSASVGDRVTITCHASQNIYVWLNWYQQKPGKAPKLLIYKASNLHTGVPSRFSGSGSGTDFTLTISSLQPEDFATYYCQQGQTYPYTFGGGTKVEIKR
row,Binder,"Phage binding ELISA, Anti-CD28 Fab signal"
1,TCEDGFHFSWPECF [Phage-1570],1.44
2,TCAAGAHYSWPFCM [Phage-1575],1.42
3,TCSAGATYTWPSCF [Phage-1572],1.42
4,WCGVGMDWRWPECL [Phage-1569],1.44
5,SCAAGATYVWPMCF [Phage-1574],1.42
6,SCSAGAMYQWPLCF [Phage-1565],1.44
7,WCDQFFHYKWPLCL [Phage-1573],1.42
8,TCSAGATYMWPACF [Phage-1567],1.44
9,TCSAGATYAWPACF [Phage-1568],1.44

# Biological target: T2, PSMA Fab
# Experiment: clonal phage supernatant ELISA on PSMA Fab pre-incubated with PSMA antigen as competitor; anti-M13-HRP detection
# Description: as §1
row,Binder,"Phage binding ELISA signal, Anti-PSMA Fab with PSMA antigen"
1,B10,0.135
2,B11,0.281
3,B12,0.0864
4,B13,0.119
5,B14,0.0844
6,B15,0.0794
7,B16,0.101
8,B17,0.11
9,B18,0.0805
10,B19,0.0958
11,B20,0.0719
12,B21,0.105
13,B22,0.147

# Biological target: T4, Anti-PSMA Fab (SEQ ID NOs: 19, 20)
# T4 construct: also called 006 PSMA Fab
# Experiment: phage binding ELISA; biotinylated PSMA Fab on neutravidin plate, clonal phage supernatant, anti-M13 HRP detection;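 further: wells were preincubated with blocking buffer either containing PSMA antigen or without it before crude phage supernatant was added, briefly incubated, then washed prior to detection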
# Description: as §1
row,Binder,"Anti-PSMA Fab (SEQ ID NOs: 19, 20) signal"
1,"YFVQCRPAWMCEGF (peptide, not shown: large carriers, Clonal phage supernatant) [Phage-1791]",2.51
2,B23,2.41
3,"VQIQCRPAWMCLGF (peptide, not shown: large carriers, Clonal phage supernatant) [Phage-1794]",2.44
4,B24,2.38
5,B25,1.14
6,"FTNYCVPSWMCTGF (peptide, not shown: large carriers, Clonal phage supernatant) [Phage-1797]",2.42
7,"IVPLCKPAWMCKLF (peptide, not shown: large carriers, Clonal phage supernatant) [Phage-1792]",2.48
8,"VEKVCKPVWMCVGF (peptide, not shown: large carriers, Clonal phage supernatant) [Phage-1798]",2.41
9,"AVKACIPEWMCIGF (peptide, not shown: large carriers, Clonal phage supernatant) [Phage-1793]",2.44
10,"EDILCKPKWMCEGF (peptide, not shown: large carriers, Clonal phage supernatant) [Phage-1801]",2.4
11,"AEVKCIPQWMCQGF (peptide, not shown: large carriers, Clonal phage supernatant) [Phage-1795]",2.43
12,"TAHHCKPAWMCTGF (peptide, not shown: large carriers, Clonal phage supernatant) [Phage-1796]",2.42
13,"EEPLCRPVWMCEGF (peptide, not shown: large carriers, Clonal phage supernatant) [Phage-1799]",2.41

# Biological target: T4, Anti-PSMA Fab (SEQ ID NOs: 19, 20)
# Experiment: phage binding ELISA; biotinylated PSMA Fab on neutravidin plate pre-incubated with PSMA antigen (competitor), anti-M13 HRP detection;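 further: competition ELISA where clonal phage supernatants were added to wells preincubated with PSMA antigen or with blocking buffer only as control, bound phage read via HRP-coupled anti-M13 antibody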
# Description: as §1
row,Binder,Anti-PSMA Fab signal in the presence of PSMA
1,"YFVQCRPAWMCEGF (peptide, not shown: large carriers, Clonal phage supernatant) [Phage-1791]",0.339
2,B23,0.103
3,"VQIQCRPAWMCLGF (peptide, not shown: large carriers, Clonal phage supernatant) [Phage-1794]",0.127
4,B24,0.109
5,B25,0.0587
6,"FTNYCVPSWMCTGF (peptide, not shown: large carriers, Clonal phage supernatant) [Phage-1797]",0.129
7,"IVPLCKPAWMCKLF (peptide, not shown: large carriers, Clonal phage supernatant) [Phage-1792]",0.221
8,"VEKVCKPVWMCVGF (peptide, not shown: large carriers, Clonal phage supernatant) [Phage-1798]",0.156
9,"AVKACIPEWMCIGF (peptide, not shown: large carriers, Clonal phage supernatant) [Phage-1793]",0.106
10,"EDILCKPKWMCEGF (peptide, not shown: large carriers, Clonal phage supernatant) [Phage-1801]",0.109
11,"AEVKCIPQWMCQGF (peptide, not shown: large carriers, Clonal phage supernatant) [Phage-1795]",0.0852
12,"TAHHCKPAWMCTGF (peptide, not shown: large carriers, Clonal phage supernatant) [Phage-1796]",0.103
13,"EEPLCRPVWMCEGF (peptide, not shown: large carriers, Clonal phage supernatant) [Phage-1799]",0.117

# Biological target: T3, Anti-CD28 Fab (SEQ ID NOs: 696, 697)
# Experiment: phage ELISA; biotinylated anti-CD28 Fab on neutravidin plate, wells pre-incubated with CD28 antigen as competitor, anti-M13 HRP detection
# Description: as §2
row,Binder,"Phage binding ELISA, Anti-CD28 Fab signal in the presence of CD28"
1,TCEDGFHFSWPECF [Phage-1570],0.07
2,TCAAGAHYSWPFCM [Phage-1575],0.07
3,TCSAGATYTWPSCF [Phage-1572],0.06
4,WCGVGMDWRWPECL [Phage-1569],0.16
5,SCAAGATYVWPMCF [Phage-1574],0.07
6,SCSAGAMYQWPLCF [Phage-1565],0.09
7,WCDQFFHYKWPLCL [Phage-1573],0.07
8,TCSAGATYMWPACF [Phage-1567],0.1
9,TCSAGATYAWPACF [Phage-1568],0.08
